Tested on: MS2 coat protein
Experiment: apparent KD of MS2 coat protein; designed switch direction (-1 OFF switch, 1 ON switch): -1; higher = weaker reporter binding
Summary of the method: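 Designed RNA switches with common flanks were transcribed on Illumina chips by stalled E. coli RNA polymerase and titrated with SNAP-549-labelled MS2 coat protein, from 0.7 or 1.5 nM doubling to 3 µM, in Tris-HCl pH 7.5 buffer with KCl, MgCl2, BSA, DTT, tRNA and Tween-20. Steps lasted 0.8–1.5 h (lowest) to 10–20 min (highest). Titrations ran without input, with 200 uM small-molecule ligand, or with an oligonucleotide input. Normalised cluster fluorescence was curve-fitted, and apparent KD is the per-design median over clusters.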

[1] = input ligand: microRNA oligo, concentration not stated
[2] = Eterna round: R95, input ligand: FMN 200 uM
[3] = Eterna round: R95, input ligand: microRNA oligo, concentration not stated
[4] = Eterna round: R95, input ligand: none

Sequence	apparent KD of MS2 coat protein (input ligand: FMN 200 uM) [nM]	apparent KD of MS2 coat protein [1] [nM]	apparent KD of MS2 coat protein (input ligand: none) [nM]	apparent KD of MS2 coat protein [2] [nM]	apparent KD of MS2 coat protein [3] [nM]	apparent KD of MS2 coat protein [4] [nM]
ACAUGAGGAUCACCCAUGUCCGGCUGGUCCGUCUCGGCUGUCGAGGAUAUGGCUCGGUGUCCGCGCUAGAAGGUGGGAGCCGGA [Aenatbe mod 75] (Eterna round: R96, puzzle: Exclusion NG 3)	56.7	45.1	93.5			
AGUUGGCGAGGAUAUACAUGAGGAUCACCCAUGUGAGAGAAUAAAGUGAGAAAGAAAAGUAGAAGGCGCUGACG [Mat - Exclusion 3 - Mod of Salish D50] (puzzle: Exclusion 3)				82.8	62.7	41.4
GGUGUGCUAGGAUAUGCUUUGGGCUCGCUUUCCUUCGUUUUACUUGAGGAUCACCCAAGUAGAAGGAGCUUGCC [salish99_ex2_r4_037] (Eterna round: R97, puzzle: Exclusion 2)	13.3		11.6			
AAUUUACAUGAGGAUCACCCAUGUGAGGAUAUAUGUUUAAAUUUUUUUUUUUUUUUUCAUAGAAGGCGCGUGAU [JR_Exc1_Sub048] (Eterna round: R97, puzzle: Exclusion 1)	17.3		31.6			
UAUAAUUUUUUUUUUUUACAAGCUUUUUGCUCGUCUUAUACAUGAGGAUCACCCAUGUGGGUGAAAGAUAGAUUGUC [JMF's solution 2] (puzzle: Sensor v3, turn-off variant 2)				37.7	15.5	41.2
AACCAUGAAGGAUAUGACUUAACGAACAUGAGGAUCACCCAUGUGACCGAGCAGUGUUGAUCAGAAGGUUAAGGUG [Rier] (puzzle: Exclusion 5)				101	83.7	139
CUGUUCCAUGUAGGAUAUGCAUAUUCUCAUUAUGCAGAAGGACAUGAGGAUCACCCAUGUAUGUUAUUAUUAUAUGUUACAUGU [Design 3] (Eterna round: R96, puzzle: Exclusion NG 1)	633	47.7	64.9			
GGAUCUUGGGUCAGGAUAUGCUGAUAUUUUUGUCAGCAGAAGGGACAUGAGGAUCACCCAUGUGCUUGGUUUUG [Magic-16] (puzzle: Brourd's mod of Exclusion 4)					12.6	
AACCUGAGGCUUUGCUUUAGGUGUACAUGAGGAUCACCCAUGUAGGAUAUGGUAGGCUUUGCUUACCAGAAGGACAUUUAGGUU [JL ENG3 1.15] (Eterna round: R96, puzzle: Exclusion NG 3)	110	33.6	43			
GAAGAAGAGAGAAAAGAAAACAUGAGGAUCACCCAUGUGAGAAGAUGAGGGUGAUACAGGCUAUAUGCUCGUCUUAU (puzzle: Sensor v3, turn-off variant 1)				247	28.8	295
CUAAAAGUGAUCACAGGAACAUGAGGAUCACCCAUGUGCCUCAAGGAUAUGCACGGCUAUCCAGGGUAGAAGGUGAGAAUGCAC [Eternabot solution 30] (Eterna round: R96, puzzle: Exclusion NG 3)	68.3	104	100			
AAACCGGGCGCACCUCAGUCACAUGAGGAUCACCCAUGUUCUGAGGAUAUGCAUCCAAACGGAACGCAGAAGGCGGAACGUAAC [Bibidianer] (Eterna round: R96, puzzle: Exclusion NG 3)	10.5	8.52	13			
ACAAACAGCUGAGGAUAUCACGAGCAAGGCCAGUGAGAAGGUAGCUCAAACAUGAGGAUCACCCAUGUUAAACUUCCUCAUGCG [Raisorar] (Eterna round: R96, puzzle: Exclusion NG 1)	13.7	10.4	17.7			
GUACUGACAGGAUAUACAUGAGGAUCACCCAUGUGCCUUAGCGCUACAAAAGUAGCGUGUAGAAGGGUCUGUAC [Omei Ex3 Model Bachelor's Dilema v15] (Eterna round: R97, puzzle: Exclusion 3)	36.8		15.4			
GGUUGGCGAGGAUAUACAUGAGGAUCACCCAUGUGAGAGAAAAAAGUGAGCAAGAAAAGUAGAAGGCGCUGACG [salish99_ex3_r3_030] (puzzle: Exclusion 3)				627	75.7	27.5
UCGGCGCGAGGAUAUACGUUUGCUUUUUUUCGUUUUUGUGUACAUGAGGAUCACCCAUGUAGAAGGCGCGCCGC [Apr-15 SS2-20] (puzzle: Exclusion 2)					14.6	
UUCCUCGUUGUGAGGAUAUCGUCCGUGUUUUGUUACGAGAAGGCACAUGAGGAUCACCCAUGUUAUUUGAUUUU [JR_BMOE4_Sub074] (puzzle: Brourd's mod of Exclusion 4)				83.6	36.8	37.9
UCUCAGAUAGGAUAUACGUUGGCGGUAGAUCGGGUUUAAAUACAUGAGGAUCACCCAUGUAGAAGGAUCGAGGG [EX2 C.8] (Eterna round: R97, puzzle: Exclusion 2)	94.4		104			

Sequence	apparent KD of MS2 coat protein (input ligand: FMN 200 uM) [nM]	apparent KD of MS2 coat protein [1] [nM]	apparent KD of MS2 coat protein (input ligand: none) [nM]	apparent KD of MS2 coat protein [2] [nM]	apparent KD of MS2 coat protein [3] [nM]	apparent KD of MS2 coat protein [4] [nM]
CCCACCAGAGGAUAUGCGCAUAGAUCAGACUUUGUUUCUGAACAUGAGGAUCACCCAUGUAGAAGGCUGUAACC [Ex2 #87] (Eterna round: R97, puzzle: Exclusion 2)	25.2		24.3			
AUAAUACAUGAGGAUCACCCAUGUGAGGAUAUGAGCCUACAUUCACGCAGAGAGAAGGUCAGAAGGCACUUGGU [Eternabot (L2) Solution 65] (Eterna round: R97, puzzle: Exclusion 1)	211		63.3			
CUUUUGUGAGGAUAUCAGUAGUAUAAAAUUAAAAUUACUACUGAGAAGGCACAUGAGGAUCACCCAUGUUCCUC [Mat - Exclusion 4 - Mod of Salish - D75] (puzzle: Exclusion 4)					36	
CUGAGAAUAGGAUAUACUAACAAUGGAGUAGCUUCACGUCAACAUGAGGAUCACCCAUGUAGAAGGGUUAGCGG [Eternabot (L1) Solution 33] (Eterna round: R97, puzzle: Exclusion 2)	25		30			
CAUUAUUAUCGAGGAUAUCCUAUUGAAAUUCUGGGAGAAGGCGGACUCAACAUGAGGAUCACCCAUGUGGGACGGAUGCUAGGA [salish99_exng1_r04_602] (Eterna round: R96, puzzle: Exclusion NG 1)		13.3				
CGGGCGCGUGUAGGAUAUCGGGCCCGGUGGGCCCGAGAAGGACAUGAGGAUCACCCAUGUGCCCGGGUUGCCCGGGCGCGCCCG [-50, -49 kcal and 14% A] (Eterna round: R96, puzzle: Exclusion NG 1)	14.6	7.82	14.5			
AGCGAGGCAGGAUAUACAUGAGGAUCACCCAUGUACUUGUAUGGCGUGGAACAUCGUGGUAGAAGGGCCGCGCC [EX3 #79] (Eterna round: R97, puzzle: Exclusion 3)	33.5		23.7			
AACGACUGAGGAUAUACAUGAGGAUCACCCAUGUGUUGAAAUACGUGCUUGGUUAACUGUAGAAGGCAGAAAAU [Isxeen] (puzzle: Exclusion 3)				21.9	12.8	14
AUACCACGAGGAUAUCGUCUAUUUCACAUGAGGAUCACCCAUGUUAUCUUUGUUUUGUUUCGAGAAGGCGUGUUUU [JR_E5_Sub078] (puzzle: Exclusion 5)					28.1	
UUAUCCGCUGAGGAUAUUAUCACUGAGAGGUGAUGAGAAGGCGGUACAUGAGGAUCACCCAUGUCUAUGGGCAG [Ex-6 Malc#23] (puzzle: Exclusion 6)				584	228	864
AGUACUAUCACGAAAGUGAUAGUACAAUAAGCAAGUGAAACAUGAGGAUCACCCAUGUCCUCAUUUGCUCGUCUUAU [JL turnoff v2 74] (Eterna round: R96, puzzle: Sensor v2, turn-off variant 2)	16.7	400	19.1			
GAGAAGGUAGGAUAUACGAAGAAAGAGGGUAGGAAGAAGACACAUGAGGAUCACCCAUGUAGAAGGACCAAGAG [Mat - Exclusion 2 - Mod of my Tesla design - D48] (puzzle: Exclusion 2)				27.1	13.9	14.1
UCGGCGCGAGGAUAUGCGGUUGCUUGGUAGGGUCGGAGCGUACAUGAGGAUCACCCAUGUAGAAGGCGCGCCGC [Apr-15 SS2-33] (puzzle: Exclusion 2)					15.5	
AUAUUGUGAGGAUAUGAACUUAGUUUCGAAAGAUACUAAGUUCAGAAGGCACAUGAGGAUCACCCAUGUUUCUC [Long static hairpin v21] (Eterna round: R97, puzzle: Exclusion 4)	597		79.8			
GCCGAUUAAGUGAGGAUAUACCUAUGGAUACAUAGGUAGAAGGCACAUGAGGAUCACCCAUGUUCCUCAUCGGC [Fiskers BMX 4 - 11] (puzzle: Brourd's mod of Exclusion 4)					19.3	
GAUCAUGCAGGAUAUACAGUUUCCAUGAAAACAUGGUCCUCACAUGAGGAUCACCCAUGUAGAAGGGCAUGAUC [Omei Ex2 A28] (Eterna round: R97, puzzle: Exclusion 2)	151		1490			
ACAUGAGGAUCACCCAUGUUUUUCGGGUACUCUUUUUACAGCAAGGAUAUGCAUGUUUUUUUUACGCAGAAGGUGCUUUACGUC [JR_ExcNG3_Sub067] (Eterna round: R96, puzzle: Exclusion NG 3)		77.7				
